The source of these data is publication PMC2663797 (The journal of physical chemistry. B, 2008).

Usually stoichiometry N stands for the number of molecules, sites or subunits per partner or assembly.

The data set concerns the molecule itself. Put plainly: SDS-PAGE.

B1: porin OmpF from E. coli (wild type) (natural protein, UniProt P02931 23-362, looked up)
chain: AEIYNKDGNKVDLYGKAVGLHYFSKGNGENSYGGNGDMTYARLGFKGETQINSDLTGYGQWEYNFQGNNSEGADAQTGNKTRLAFAGLKYADVGSFDYGRNYGVVYDALGYTDMLPEFGGDTAYSDDFFVGRVGGVATYRNSNFFGLVDGLNFAVQYLGKNERDTARRSNGDGVGGSISYEYEGFGIVGAYGAADRTNLQEAQPLGNGKKAEQWATGLKYDANNIYLAANYGETRNATPITNKFTNTSGFANKTQDVLLVAQYQFDFGLRPSIAYTKSKAKDVEGIGDVDLVNYFEVGATYYFNKNMSTYVDYIINQIDSDNKLGVGSDDTVAVGIVYQF
As for B1, the “stoichiometry N” value came out at 3.
